According to US20090035322A1 (Regeneron, published 2009):

T1: mutant human CD20 #8 (Y77F, N163D, N166D) (human, UniProt P11836 1-297)
T1 construct: Stably expressed on MG87 cells
T1 chain: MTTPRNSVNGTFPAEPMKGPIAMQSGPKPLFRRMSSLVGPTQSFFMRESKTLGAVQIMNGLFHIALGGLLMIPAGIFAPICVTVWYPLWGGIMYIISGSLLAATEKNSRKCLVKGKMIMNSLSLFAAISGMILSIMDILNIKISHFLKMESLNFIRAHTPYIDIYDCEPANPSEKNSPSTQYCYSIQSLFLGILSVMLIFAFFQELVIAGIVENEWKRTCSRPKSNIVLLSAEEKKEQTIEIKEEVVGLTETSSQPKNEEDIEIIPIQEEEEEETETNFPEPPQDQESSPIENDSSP

T2: mutant human CD20 #7 (Y77F, N163D) (human, UniProt P11836 1-297)
T2 construct: Stably expressed on MG87 cells
T2 chain: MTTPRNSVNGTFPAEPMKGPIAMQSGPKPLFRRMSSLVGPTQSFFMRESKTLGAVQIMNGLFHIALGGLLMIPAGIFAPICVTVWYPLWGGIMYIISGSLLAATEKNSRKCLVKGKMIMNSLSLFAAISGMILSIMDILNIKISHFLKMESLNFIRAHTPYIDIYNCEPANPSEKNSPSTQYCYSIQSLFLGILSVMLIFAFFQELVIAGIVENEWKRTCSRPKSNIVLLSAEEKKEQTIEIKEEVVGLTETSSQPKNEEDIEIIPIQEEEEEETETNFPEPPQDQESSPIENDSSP

T3: mutant human CD20 #2 (N163D) (human, UniProt P11836 1-297)
T3 construct: Stably expressed on MG87 cells
T3 sequence: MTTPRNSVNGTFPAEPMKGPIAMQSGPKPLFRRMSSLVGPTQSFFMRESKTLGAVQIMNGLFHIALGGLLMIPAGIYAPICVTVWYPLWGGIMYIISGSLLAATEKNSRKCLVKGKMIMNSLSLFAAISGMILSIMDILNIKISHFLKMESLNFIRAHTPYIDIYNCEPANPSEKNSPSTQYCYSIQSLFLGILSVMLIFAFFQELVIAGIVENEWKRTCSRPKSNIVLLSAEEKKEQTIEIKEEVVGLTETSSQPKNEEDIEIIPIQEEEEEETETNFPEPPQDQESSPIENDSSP

T4: mutant human CD20 #1 (Y77F) (human, UniProt P11836 1-297)
T4 construct: Human residues replaced by mouse residues; stably expressed on MG87 cells
T4 sequence: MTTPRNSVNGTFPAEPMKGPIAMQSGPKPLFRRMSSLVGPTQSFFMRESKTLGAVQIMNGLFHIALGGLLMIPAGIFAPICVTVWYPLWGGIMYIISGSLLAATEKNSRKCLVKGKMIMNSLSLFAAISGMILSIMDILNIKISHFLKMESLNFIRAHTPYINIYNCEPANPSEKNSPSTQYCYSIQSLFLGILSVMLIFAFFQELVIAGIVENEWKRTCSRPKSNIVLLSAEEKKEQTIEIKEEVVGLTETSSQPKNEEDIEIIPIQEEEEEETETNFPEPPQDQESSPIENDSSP

T5: mutant human CD20 #10 (A157V) (human, UniProt P11836 1-297)
T5 construct: Stably expressed on MG87 cells
T5 sequence: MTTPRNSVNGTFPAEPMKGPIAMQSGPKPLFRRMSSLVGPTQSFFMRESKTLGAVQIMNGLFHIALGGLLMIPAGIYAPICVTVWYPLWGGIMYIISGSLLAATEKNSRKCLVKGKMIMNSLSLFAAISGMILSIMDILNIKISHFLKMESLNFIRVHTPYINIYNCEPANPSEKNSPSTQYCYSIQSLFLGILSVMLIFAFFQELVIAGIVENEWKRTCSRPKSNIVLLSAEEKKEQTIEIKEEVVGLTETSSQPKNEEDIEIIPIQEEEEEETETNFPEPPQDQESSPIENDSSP

T6: mutant human CD20 #3 (A170S, P172S) (human, UniProt P11836 1-297)
T6 construct: Stably expressed on MG87 cells
T6 chain: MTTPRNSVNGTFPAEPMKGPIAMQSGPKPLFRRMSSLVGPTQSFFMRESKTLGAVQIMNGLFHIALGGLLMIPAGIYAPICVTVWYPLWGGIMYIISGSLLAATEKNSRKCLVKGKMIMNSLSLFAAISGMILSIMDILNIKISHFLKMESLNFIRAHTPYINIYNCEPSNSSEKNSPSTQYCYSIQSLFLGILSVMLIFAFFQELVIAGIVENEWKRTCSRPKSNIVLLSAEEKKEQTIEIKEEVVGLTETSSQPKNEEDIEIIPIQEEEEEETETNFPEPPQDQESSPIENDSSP

T7: human CD20 (human, UniProt P11836 1-297)
T7 sequence: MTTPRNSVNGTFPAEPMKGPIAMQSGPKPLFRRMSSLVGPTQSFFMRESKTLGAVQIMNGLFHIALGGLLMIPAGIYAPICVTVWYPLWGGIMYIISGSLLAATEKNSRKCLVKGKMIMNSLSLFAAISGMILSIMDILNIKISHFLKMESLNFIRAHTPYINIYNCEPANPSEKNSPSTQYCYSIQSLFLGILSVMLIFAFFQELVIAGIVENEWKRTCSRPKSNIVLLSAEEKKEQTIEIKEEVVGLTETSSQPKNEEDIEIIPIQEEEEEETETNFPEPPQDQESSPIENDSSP


How the values were obtained:
[1] = target: T1, mutant human CD20 #8 (Y77F, N163D, …); assay: FACS, mutant-hCD20 MG87 cells; 100%=best antibody
Experimental: (§1) Briefly, approximately 1×10⁶ cells from each stably transfected cell line expressing a mutant human CD20 were collected and incubated with each anti-human antibody, at 10 μg/ml, on ice for 1 hr, followed by incubation with APC-conjugated goat anti-human IgG (Jackson Immunolabs), at 10 μg/ml, on ice for 45 min. For each antibody, binding to each mutant human CD20 was assessed by flow cytometry.

[2] = target: T2, mutant human CD20 #7 (Y77F, N163D); assay: FACS, mutant-hCD20 MG87 cells; 100%=best antibody
Experimental: as §1

[3] = target: T3, mutant human CD20 #2 (N163D); assay: FACS, mutant-hCD20 MG87 cells; 100%=best antibody
Experimental: as §1

[4] = target: T4, mutant human CD20 #1 (Y77F); assay: FACS, mutant-hCD20 MG87 cells; 100%=best antibody
Experimental: as §1

[5] = target: T5, mutant human CD20 #10 (A157V); assay: FACS, mutant-hCD20 MG87 cells; 100%=best antibody
Experimental: as §1

[6] = target: T6, mutant human CD20 #3 (A170S, P172S); assay: FACS, mutant-hCD20 MG87 cells; 100%=best antibody
Experimental: as §1

human CD20 [7] = target: T7, human CD20; assay: cell-based or functional assay
human CD20 [8] = target: T7, human CD20; assay: cell-based or functional assay; remark: listed apart in the source

Binder	Percent of Binding to Mutant Human CD20 [1]	Percent of Binding to Mutant Human CD20 [2]	Percent of Binding to Mutant Human CD20 [3]	Percent of Binding to Mutant Human CD20 [4]	Percent of Binding to Mutant Human CD20 [5]	Percent of Binding to Mutant Human CD20 [6]	CDC, Daudi EC50 (human CD20 [7])	CDC, RL EC50 (human CD20 [7])	ADCC EC50 (pM), Daudi + PBMC (human CD20 [8])
6B9-4 (antibody, V domains shown, Fully human IgG, constant region not specified; also called 6B9-4N) VH: EEQLVESGGDLVQPGRSLRLSCAASGFTFHDYTMHWVRQAPGKGLEWVSGISWNSGSIGYADSVKGRFTISRDNAKNSLYLQMNSLRIEDTALYYCAKDPSYGSGSYYYYYGMDVWGQGTTVTVSS VL: EIVLTQSPATLSLSPGERATLSCRASQSVSSYLVWYQQRPGQAPRLLIYEASNRATGIPARFSGSGSGTDFTLTISSLESEDFAVYYCQQRSNWPLTFGGGTKVEIK	0%	2%	3%	74%	75%	64%	0.34 nM	0.97 nM	4.27 pM
3H7-6 (antibody, V domains shown, Fully human IgG, constant region not specified; also called 3H7-6N) VH: EVQLVESGGGLVQPGRSLRLSCAASGFTFYDYAMHWVRQAPGKGLEWVSGISWNSGYIGYADSVKGRFTISRDNAKNSLYLQMNSLRAEDTALYYCAKDNSYGKFYYGLDVWGQGTTVTVSS VL: EIVMTQSPATLSVSPGERTTLSCRASQSVSSNLAWYLQKPGQAPRLLIYGASTRATGIPARFSGSGSGTEFILTISSLQSEDFAVYYCQQYNNWPITFGQGTRLEIK	0%	1%	1%	28%	80%	43%	0.44 nM	3.66 nM	11.1 pM
9H4-12 (antibody, V domains shown, Fully human IgG, constant region not specified; also called 9H4-12N) VH: EVQLVESGGGLVQPGRSLRLSCAASGFTFDDYAMHWVRQVPGKGLEWVSGISWNSGSIGYADSVKGRFTISRDNAKNSLYLQMNSLRAEDTALYYCAKDMGYGNYYHYGMDVWGQGTTVTVSS VL: DIVLTQSPATLSLSPGERATLSCRASQSVSSYLAWYQQKPGQAPRLLICDASHRATRIPARFSGSGSGTDFTLTISSLEPEDFAVYYCQQRSNWPITFGQGTRLEIK	0%	2%	0%	19%	52%	0%	51.1 nM	29.6 nM	33.8 pM
9C11-14 (antibody, V domains shown, Fully human IgG, constant region not specified; also called 9C11-14N) VH: QVQLVESGGDSVKPGGSLRLSCAASGFTFSDSYMTWIRQAPGKGLEWVSFISSSGSTIYYADSVKGRFTISRDNVKKSLYLQMNRLRAEDTAVYYCAREEPGNYVYYGMDVWGQGTTVTVSS VL: EIVVTQSPATLSLSPGERATLSCRTSQTTTSYLAWYRQKPGQAPRLLIYDASNRAAGIPARFSGSGSGTDFTLTINSLEPEDFAVYYCQLRTNWITFGQGTRLEIK	100%	96%	83%	89%	83%	0%	7.14 nM	12 nM	10.2 pM
